Target: the molecule itself
Test: cryo-EM structure; single-particle cryo-EM of the purified channel in 0.02% GDN, 150 mM KCl, 50 mM TRIS pH 7.5; C4 symmetry imposed

B1: Shaker-IR-I384R (natural protein, UniProt P08510 1-655, looked up)
chain: MAAVALREQQLQRNSLDGYGSLPKLSSQDEEGGAGHGFGGGPQHFEPIPHDHDFCERVVINVSGLRFETQLRTLNQFPDTLLGDPARRLRYFDPLRNEYFFDRSRPSFDAILYYYQSGGRLRRPVNVPLDVFSEEIKFYELGDQAINKFREDEGFIKEEERPLPDNEKQRKVWLLFEYPESSQAARVVAIISVFVILLSIVIFCLETLPEFKHYKVFNTTTNGTKIEEDEVPDITDPFFLIETLCIIWFTFELTVRFLACPNKLNFCRDVMNVIDIIAIIPYFITLATVVAEEEDTLNLPKAPVSPQDKSSNQAMSLAILRVIRLVRVFRIFKLSRHSKGLQRLGRTLKASMRELGLLIFFLFIGVVLFSSAVYFAEAGSENSFFKSIPDAFWWAVVTMTTVGYGDMTPVGVWGKIVGSLCAIAGVLTIALPVPVIVSNFNYFYHRETDQEEMQSQNFNHVTSCPYLPGTLGQHMKKSSLSESSSDMMDLDDGVESTPGLTETHPGRSAVAPFLGAQQQQQQPVASSLSMSIDKQLQHPLQQLTQTQLYQQQQQQQQQQQNGFKQQQQQTQQQLQQQQSHTINASAAAATSGSGSSGLTMRHNNALAVSIETDV
notes: built on the Shaker-IR model PDB 7SIP; The C-terminal HRV 3C site was cut to release the channel from the beads, so residues of the site may remain; also called uncoupled channel; completely uncoupled I384R mutant; not shown: eGFP, C-terminal, cleaved; 8xHis, C-terminal, cleaved
B1 was tested, and the “stoichiometry N” value was 4.
